Experimental data as given in patent US20170349886A1 (VEGENICS, published 2017).
Where a chain is given by its changes, count along the chain named. Where two headings read alike, the source gives them in different places.

B1: VGX-300 (Fc fusion)
chain: YSMTPPTLNITEESHVIDTGDSLSISCRGQHPLEWAWPGAQEAPATGDKDSEDTGVVRDCEGTDARPYCKVLLLHEVHANDTGSYVCYYKYIKARIEGTTAASSYVFVRDFEQPFINKPDTLLVNRKDAMWVPCLVSIPGLNVTLRSQSSVLWPDGQEVVWDDRRGMLVSTPLLHDALYLQCETTWGDQDFLSNPFLVHITGNELYDIQLLPRKSLELLVGEKLVLNCTVWAEFNSGVTFDWDYPGKQAERGKWVPERRSQQTHTELSSILTIHNVSQHDLGSYVCKANNGIQRFRESTEVIVHE
notes: only Ig-like domains I-III were in the molecule; Produced by transient expression in CHO or HEK cells; also called Parent; VGX-300 parent; not shown: Fc region gamma chain (detected with anti-human IgG)
B2: Human VEGF-C (ligand, UniProt P49767 103-227, looked up)
chain: TEETIKFAAAHYNTEILKSIDNEWRKTQCMPREVCIDVGKEFGVATNTFFKPPCVSVYRCGGCCNSEGLQCMNTSTSYLSKTLFEITVPLSQGPKPVTISFANHTSCRCMSKLDVYRQVHSIIRR
notes: also called VEGF-C ligand
B3: VGX-301-ΔN2 (Fc fusion)
chain: B1 chain with N80Q
notes: also called N2 mutant; not shown: Fc region gamma chain as in VGX-300
B4: Human VEGF-D (ligand, UniProt O43915 93-201, looked up)
chain: FYDIETLKVIDEEWQRTQCSPRETCVEVASELGKSTNTFFKPPCVNVFRCGGCCNEESLICMNTSTSYISKQLFEISVPLTSVPELVPVKVANHTGCKCLPTAPRHPYS
notes: also called VEGF-D ligand

What was measured:
Human VEGF-C [1] = target: B2; assay: cell-based or functional assay
Human VEGF-D [2] = target: B4; assay: cell-based or functional assay
Human VEGF-C [3] = target: B2; assay: cell-based or functional assay; remark: listed apart in the source
Human VEGF-D [4] = target: B4; assay: cell-based or functional assay; remark: listed apart in the source
Human VEGF-C [5] = target: B2; assay: cell-based or functional assay; remark: listed apart in the source
Human VEGF-D [6] = target: B4; assay: cell-based or functional assay; remark: listed apart in the source
Human VEGF-C [7] = target: B2; assay: ELISA on plate-coated VEGF-C (2 µg/mL), anti-human IgG-HRP detection; sigmoidal fit of the curve of FIG. 2A
Human VEGF-D [8] = target: B4; assay: ELISA on plate-coated VEGF-D (2 µg/mL), anti-human IgG-HRP detection; sigmoidal fit of the curve of FIG. 2A
VGX-300 = target: B1; assay: SPR, ProteOn XPR36; trap captured on protein G' on a GLM chip, ligand as analyte
Source text: (§1) The results of the affinity experiment are provided below in Table 5.

VGX-301-ΔN2 = target: B3; assay: as above
Source text: as §1

| Binder | IC50 (read off the curve); VEGF-C-driven proliferation (WST-1) of Ba/F3 cells with the VEGFR-2 ECD/EpoR chimeric receptor (Human VEGF-C [1]) [mg/L] | IC50 (read off the curve); VEGF-D-driven proliferation (WST-1) of Ba/F3 cells with the VEGFR-2 ECD/EpoR chimeric receptor (Human VEGF-D [2]) [mg/L] | IC50 (read off the curve); VEGF-C-driven proliferation (WST-1) of Ba/F3 cells with the VEGFR-3 ECD/EpoR chimeric receptor (Human VEGF-C [3]) [mg/L] | IC50 (read off the curve); VEGF-D-driven proliferation (WST-1) of Ba/F3 cells with the VEGFR-3 ECD/EpoR chimeric receptor (Human VEGF-D [4]) [mg/L] | IC50 (read off the curve); VEGF-C-driven proliferation (WST-1) of Ba/F3 cells with the VEGFR-3 ECD/EpoR chimeric receptor (Human VEGF-C [5]) [mg/L] | IC50 (read off the curve); VEGF-D-driven proliferation (WST-1) of Ba/F3 cells with the VEGFR-3 ECD/EpoR chimeric receptor (Human VEGF-D [6]) [mg/L] | EC50 (Human VEGF-C [7]) [mg/L] | EC50 (Human VEGF-D [8]) [mg/L] | Kd (VGX-300) [nM] | koff (VGX-300) [s⁻¹] | kon (VGX-300) [M⁻¹ s⁻¹] | Kd (VGX-301-ΔN2) [nM] | koff (VGX-301-ΔN2) [s⁻¹] | kon (VGX-301-ΔN2) [M⁻¹ s⁻¹] |
| --- | --- | --- | --- | --- | --- | --- | --- | --- | --- | --- | --- | --- | --- | --- |
| B1 | ~0.02 | ~3 | ~0.01 | ~0.4 | ~0.007 | ~0.5 | 0.058 | 0.504 | – | – | – | – | – | – |
| B2 | – | – | – | – | – | – | – | – | 0.0051 | 1.11e-05 | 2.18e+06 | 0.0037 | 1.03e-05 | 2.79e+06 |
| B3 | – | – | – | – | ~0.005 | ~0.3 | 0.0295 | 0.105 | – | – | – | – | – | – |
| B4 | – | – | – | – | – | – | – | – | 0.625 | – | – | 0.677 | – | – |
